Experiments:
Tsa1 S78D mutant (yeast) = assay: SEC; size-exclusion chromatography of the S78D mutant (Figure S2C)
[1] = biological target: the molecule itself; assay: methyl-detected diffusion-ordered NMR spectroscopy (DOSY); solution, deuterated Ile/Leu/Val methyl-labeled sample, series from 25 to 60 °C; temperatures above the midpoint at ca. 315 K
[2] = biological target: the molecule itself; assay: SEC-MALS; Superdex Increase 200 10/300 GL, phosphate buffer (PBS or 50 mM KPi KCl pH 7.4), RT (ca. 297 K); decamer also reinjected alone, with TCEP and after H2O2 treatment

Row | Molecule | stoichiometry N (Tsa1 S78D mutant (yeast)) | stoichiometry N [1] | stoichiometry N [2]
1 | Tsa1 S78D mutant (enzyme) | 2 | – | –
2 | Tsa1 wild type (2-Cys peroxiredoxin from yeast) (enzyme, UniProt P34760 1-196, looked up, disulfide bond between Cys47 (CP) of one subunit and Cys170 (CR) of another subunit in the oxidized state (as purified or after H2O2); free thiols in the reduced state (TCEP or DTT), Tsa1, 2-Cys peroxiredoxin from yeast, wild type, plasmid pET19b-Tsa1 corresponding to UniProt entry P34760, codon-optimized; No removal of the His tag is described; Decamer of five dimers (ca. 216 kDa) at ambient temperature; also called Tsa1^WT; Tsa1^ox; source: E. coli BL21(DE3), purified (Ni2+-HisTrap, gel filtration on Superdex S200 increase); copies: 10) MVAQVQKQAPTFKKTAVVDGVFDEVSLDKYKGKYVVLAFIPLAFTFVCPTEIIAFSEAAKKFEEQGAQVLFASTDSEYSLLAWTNIPRKEGGLGPINIPLLADTNHSLSRDYGVLIEEEGVALRGLFIIDPKGVIRHITINDLPVGRNVDEALRLVEAFQWTDKNGTVLPCNWTPGAATIKPTVEDSKEYFEAANK | – | 2 | 10

Source: paper PMC10197130, “Disulfide-Bond-Induced Structural Frustration and Dynamic Disorder in a Peroxiredoxin from MAS NMR” (Journal of the American Chemical Society, 2023)
